Assay results: patent US20210198369A1 (DRAGONFLY THERAPEUTICS, published 2021)
Several values for one entry are separate records, joined by “and”; a condition that tells them apart may be missing. Equal values may be shown once.

Tests used:
[1] = molecular target: T1, HER2 (ErbB2) expressed on human cells (SkBr-3, NCI-H661, 786-O cancer cells; human cardiomyocytes) (human, UniProt P04626 23-1255); experiment: cell-based or functional assay
[2] = molecular target: T2, fusion protein of human NKG2D and murine Fc (human, UniProt P26718 78-216); experiment: SPR at 37 C, steady state affinity fit, average of two independent experiments
T2 construct: also called mFc-hNKG2D; not shown: murine Fc
T2 sequence (looked up): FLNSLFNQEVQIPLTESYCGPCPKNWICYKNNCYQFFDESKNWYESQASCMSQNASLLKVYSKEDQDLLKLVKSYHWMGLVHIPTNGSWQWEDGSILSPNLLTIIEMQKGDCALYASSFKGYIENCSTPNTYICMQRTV
Description: (§1) Steady state affinity fit was utilized to obtain the equilibrium affinity data.

[3] = molecular target: T2, fusion protein of human NKG2D and …; experiment: SPR at 37 C, mFc-hNKG2D captured, TriNKET as analyte, steady state affinity fit
Description: as §1

[4] = molecular target: T2, fusion protein of human NKG2D and …; experiment: SPR at 37 C, mFc-hNKG2D captured, TriNKET as analyte, steady state affinity fit; reference TriNKET A
Description: as §1

[5] = molecular target: T2, fusion protein of human NKG2D and …; experiment: SPR at 37 C, steady state affinity fit, average of three independent experiments
Description: as §1

[6] = molecular target: T1, HER2 (ErbB2) expressed on human cells …; experiment: flow cytometry on SkBr-3 cells, anti-human IgG secondary, % of maximum MFI
Protocol: (§2) All three cell lines were used to assess their binding affinity to TriNKET. TriNKETs were diluted in a series of concentrations, and were incubated with the respective cells.

[7] = molecular target: T1, HER2 (ErbB2) expressed on human cells …; experiment: flow cytometry on H661 cells, anti-human IgG secondary, fold over background (control TriNKET)
Protocol: (§3) TriNKETs were diluted to 3.8e-4 to 100 μg/mL, and the dilutions were used as primary antibody stain. Binding of the TriNKET was detected using a fluorophore-conjugated anti-human IgG secondary antibody. Cells were analyzed by flow cytometry. Binding fluorescence intensity (MFI) to cells expressing HER2 was normalized to cells stained with a control (non-specific) TriNKET to obtain fold over background (FOB) values.

[8] = molecular target: T1, HER2 (ErbB2) expressed on human cells …; experiment: flow cytometry on SKBR3 cells, anti-human IgG secondary, fold over background (control TriNKET)
Protocol: as §3

[9] = molecular target: T1, HER2 (ErbB2) expressed on human cells …; experiment: flow cytometry on SkBr-3 cells, anti-human IgG secondary, fold over background (secondary only)
Protocol: as §2

[10] = molecular target: T1, HER2 (ErbB2) expressed on human cells …; experiment: flow cytometry on human cardiomyocytes, anti-human IgG secondary, fold over background (control TriNKET)
Protocol: as §3

Binder	EC50 (nM), % specific lysis of SKBR-3 target cells by KHYG-1-CD16V cells (DELFIA) [1]	Kd [2]	Kd [3]	fold reduced affinity compared to TriNKET A [4]	Kd [5]	EC50 (read off the curve) [6]	EC50 (read off the curve) [7]	EC50 (read off the curve) [8]	EC50 (read off the curve) [9]	EC50 (read off the curve) [10]
TriNKET A* (mutant form of TriNKET A having a substitution of Ile for the Met at position 102) (bispecific antibody, human IgG1, also called M102 variant) heavy: EVQLVESGGGLVKPGGSLRLSCAASGFTFSSYSMNWVRQAPGKGLEWVSSISSSSSYIYYADSVKGRFTISRDNAKNSLYLQMNSLRAEDTAVYYCARGAPIGAAAGWFDPWGQGTLVTVSSASTKGPSVFPLAPSSKSTSGGTAALGCLVKDYFPEPVTVSWNSGALTSGVHTFPAVLQSSGLYSLSSVVTVPSSSLGTQTYICNVNHKPSNTKVDKKVEPKSCDKTHTCPPCPAPELLGGPSVFLFPPKPKDTLMISRTPEVTCVVVDVSHEDPEVKFNWYVDGVEVHNAKTKPREEQYNSTYRVVSVLTVLHQDWLNGKEYKCKVSNKALPAPIEKTISKAKGQPREPQVCTLPPSRDELTENQVSLTCLVKGFYPSDIAVEWESNGQPENNYKTTPPVLDSDGSFFLYSWLTVDKSRWQQGNVFSCSVMHEALHNHYTQKSLSLSPG scFv: not shown light: DIQMTQSPSSVSASVGDRVTITCRASQGISSWLAWYQQKPGKAPKLLIYAASSLQSGVPSRFSGSGSGTDFTLTISSLQPEDFATYYCQQGVSFPRTFGGGTKVEIKRTVAAPSPPSDEQLKSGTASVVCLLNNFYPREAKVQWKVDNALQSGNSQESVTEQDSKDSTYSLSSTLTLSKADYEKHKVYACEVTHQGLSSPVTKSFNRGEC	0.65 nM	481 nM	509 nM and 454 nM	< 2 fold						
A49-F3'-TriNKET-Trastuzumab (bispecific antibody, human IgG1, also called TriNKET A; HER2-F3'-TriNKET-A49) heavy: EVQLVESGGGLVKPGGSLRLSCAASGFTFSSYSMNWVRQAPGKGLEWVSSISSSSSYIYYADSVKGRFTISRDNAKNSLYLQMNSLRAEDTAVYYCARGAPMGAAAGWFDPWGQGTLVTVSSASTKGPSVFPLAPSSKSTSGGTAALGCLVKDYFPEPVTVSWNSGALTSGVHTFPAVLQSSGLYSLSSVVTVPSSSLGTQTYICNVNHKPSNTKVDKKVEPKSCDKTHTCPPCPAPELLGGPSVFLFPPKPKDTLMISRTPEVTCVVVDVSHEDPEVKFNWYVDGVEVHNAKTKPREEQYNSTYRVVSVLTVLHQDWLNGKEYKCKVSNKALPAPIEKTISKAKGQPREPQVCTLPPSRDELTENQVSLTCLVKGFYPSDIAVEWESNGQPENNYKTTPPVLDSDGSFFLYSWLTVDKSRWQQGNVFSCSVMHEALHNHYTQKSLSLSPG scFv: not shown light: DIQMTQSPSSVSASVGDRVTITCRASQGISSWLAWYQQKPGKAPKLLIYAASSLQSGVPSRFSGSGSGTDFTLTISSLQPEDFATYYCQQGVSFPRTFGGGTKVEIKRTVAAPSPPSDEQLKSGTASVVCLLNNFYPREAKVQWKVDNALQSGNSQESVTEQDSKDSTYSLSSTLTLSKADYEKHKVYACEVTHQGLSSPVTKSFNRGEC	0.39 nM		370 nM and 328 nM and 313 nM		337 nM	~10 nM	~0.3 µg/mL	~0.3 µg/mL	~10 nM	~0.4 µg/mL
